Assay results from the supplement of paper PMC10567573.

B1: TRAF3IP2 (parent)
chain: PRPPSNPPARGTLKTSNLPEELRK

Variants of: B1
Assay: protein stability index of a GFP-peptide fusion (GPS, HEK-293T) (PSI 1-6); higher = more stable
Details: c terminus: a fixed tail appended
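Also: lentivirally expressed fusions sorted by FACS into six bins by GFP to DsRed ratio, PSI derived from sequencing read proportions per bin multiplied by bin number.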

Protein stability index, by site and new letter:
P8: R 4.43, S 4.8, T 5.02, V 5.04, W 4.22, Y 4.69
A9: C 4.31, D 5, E 5.06, F 4.37, G 4.84, H 4.63, I 4.65, K 4.44, L 4.85, M 4.68, N 4.95, Q 4.7, R 4.6, S 4.62, T 5.3, V 4.31, W 4.47, Y 4.5
R10: C 4.58, E 4.47, F 4.49, G 4.27, L 4.96, M 4.64, V 5.64, W 4.76, Y 4.89
G11: A 4.73, C 4.25, D 4.86, E 4.96, F 3.69, L 3.88, P 4.42, R 3.85, S 4.54, V 4.37, W 3.54, Y 4.28
T12: A 4.66, C 4.24, D 4.88, E 4.54, F 4.3, G 4, H 4.75, I 4.54, K 4.7, L 4.65, M 4.56, N 4.42, Q 4.52, R 4.58, S 4.35, V 4.41, W 3.65, Y 4.78
L13: A 4.52, C 3.92, D 5.09, E 5.04, F 4.37, G 4.67, H 4.36, I 4.6, K 4.79, M 5.06, N 5.15, Q 4.8, R 4.6, S 4.94, T 4.82, V 5.32, W 4.44, Y 4.25
K14: A 5.35, C 4.76, D 5.37, E 5.27, F 4.84, G 4.68, H 5.22, I 4.82, L 5.17, M 4.94, N 4.97, P 4.83, Q 5.21, R 4.65, S 5.4, T 5.09, V 5.17, W 4.58, Y 4.77
T15: A 4.22, C 4.72, D 5.13, E 4.94, F 4.29, G 4.95, H 4.99, I 4.14, K 4.82, L 4.29, M 4.43, N 4.53, P 4.64, Q 4.48, R 4.52, S 4.79, V 4.48, W 3.67, Y 4.64
S16: A 4.41, C 4.19, D 4.83, E 4.95, F 4.47, G 4.79, H 4.33, I 4.49, K 4.74, L 4.75, M 4.7, N 4.37, Q 4.48, R 4.79, T 4.92, V 4.17, W 3.47, Y 4.48
N17: A 5.05, C 4.29, D 5.09, E 5.13, F 4.42, G 4.82, H 4.58, I 4.55, K 4.07, L 4.49, M 4.8, P 5.08, S 4.91, T 4.21, V 3.94, W 3.51, Y 4.77
L18: A 4.92, D 4.67, F 4.72, G 4.96, H 4.8, I 4.38, K 5.26, M 4.5, N 4.71, Q 5.08, R 4.56, S 5.62, T 4.96
